Tests used:
VEGF-165 [1] = target: T1, VEGF-165 (UniProt P15692-4 27-191); experiment: competition; displaces fA; 10 nM VEGF-165; PBS + 0.005% Tween 20, pH 7.4 (+50 mM KCl for aptamer B); 2.5 nM aptamer heated at 90 C and cooled, 1 h incubation (temperature not stated, RT?); 7.5% PAGE in 0.5x TB pH 8.3 at 4 C; details: protein: recombinant; tags: His-tag; chain copies: 2
VEGF-165 [2] = target: T1, VEGF-165; experiment: EMSA; 10 nM VEGF-165; PBS + 0.005% Tween 20, pH 7.4 (+50 mM KCl for aptamer B); 2.5 nM aptamer heated at 90 C and cooled, 1 h incubation (temperature not stated, RT?); 7.5% PAGE in 0.5x TB pH 8.3 at 4 C; details: protein: recombinant; tags: His-tag; chain copies: 2; label: 5' fluorescein
VEGF-165 [3] = target: T1, VEGF-165; experiment: EMSA; middle + top bands combined; PBS + 0.005% Tween 20, pH 7.4 (+50 mM KCl for aptamer B); 2.5 nM aptamer heated at 90 C and cooled, 1 h incubation (temperature not stated, RT?); 7.5% PAGE in 0.5x TB pH 8.3 at 4 C; details: protein: recombinant; tags: His-tag; chain copies: 2; label: 5' fluorescein
VEGF-165 [4] = target: T1, VEGF-165; experiment: EMSA; top band only (1 aptamer:2 protein), apparent; PBS + 0.005% Tween 20, pH 7.4 (+50 mM KCl for aptamer B); 2.5 nM aptamer heated at 90 C and cooled, 1 h incubation (temperature not stated, RT?); 7.5% PAGE in 0.5x TB pH 8.3 at 4 C; details: protein: recombinant; tags: His-tag; chain copies: 2; label: 5' fluorescein
VEGF-165 [5] = target: T1, VEGF-165; experiment: EMSA; 10 nM VEGF-165; PBS + 0.005% Tween 20, pH 7.4 (+50 mM KCl for aptamer B); 2.5 nM aptamer heated at 90 C and cooled, 1 h incubation (temperature not stated, RT?); 7.5% PAGE in 0.5x TB pH 8.3 at 4 C; details: protein: recombinant; tags: His-tag; chain copies: 2; label: 5' fluorescein; remark: listed apart in the source
VEGF-165 [6] = target: T1, VEGF-165; experiment: EMSA; PBS + 0.005% Tween 20, pH 7.4 (+50 mM KCl for aptamer B); 2.5 nM aptamer heated at 90 C and cooled, 1 h incubation (temperature not stated, RT?); 7.5% PAGE in 0.5x TB pH 8.3 at 4 C; details: protein: recombinant; tags: His-tag; chain copies: 2; label: 5' fluorescein
VEGF-165 [7] = target: T1, VEGF-165; experiment: competition; displaces fC; 50 nM VEGF-165; PBS + 0.005% Tween 20, pH 7.4 (+50 mM KCl for aptamer B); 2.5 nM aptamer heated at 90 C and cooled, 1 h incubation (temperature not stated, RT?); 7.5% PAGE in 0.5x TB pH 8.3 at 4 C; details: protein: recombinant; tags: His-tag; chain copies: 2
VEGF-121 = VEGF-121 (UniProt P15692-9 27-147); experiment: EMSA; up to 333.3 nM VEGF-121; PBS + 0.005% Tween 20, pH 7.4 (+50 mM KCl for aptamer B); 2.5 nM aptamer heated at 90 C and cooled, 1 h incubation (temperature not stated, RT?); 7.5% PAGE in 0.5x TB pH 8.3 at 4 C; details: protein: recombinant; tags: His-tag; chain copies: 2; label: 5' fluorescein
VEGF-165 [8] = target: T1, VEGF-165; experiment: EMSA; curve superimposed on AT10C; PBS + 0.005% Tween 20, pH 7.4 (+50 mM KCl for aptamer B); 2.5 nM aptamer heated at 90 C and cooled, 1 h incubation (temperature not stated, RT?); 7.5% PAGE in 0.5x TB pH 8.3 at 4 C; details: protein: recombinant; tags: His-tag; chain copies: 2; label: 5' fluorescein

T1 sequence (P15692 other isoform, or with tags, fused parts or gaps): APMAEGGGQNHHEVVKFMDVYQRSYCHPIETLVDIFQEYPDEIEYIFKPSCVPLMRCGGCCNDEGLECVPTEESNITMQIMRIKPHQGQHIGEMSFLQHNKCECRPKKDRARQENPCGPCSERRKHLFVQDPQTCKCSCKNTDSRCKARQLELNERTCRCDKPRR
Chain of VEGF-121 (P15692 other isoform, or with tags, fused parts or gaps): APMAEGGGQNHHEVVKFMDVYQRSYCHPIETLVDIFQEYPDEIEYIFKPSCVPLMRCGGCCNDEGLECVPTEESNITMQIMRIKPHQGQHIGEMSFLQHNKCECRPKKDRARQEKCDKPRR

B1: nfAT100 (structured_DNA)
DNA: GCCCGTCTTCCAGACAAGAGTGCAGGGCTTTTTTTTTTTTTTTTTTTTTTTTTTTTTTTTTTTTTTTTTTTTTTTTTTTTTTTTTTTTTTTTTTTTTTTTTTTTTTTTTTTTTTTTTTTTTTTTTTTT
B1: binds (VEGF-165 [1]).

B2: CT10C (structured_DNA)
DNA: CAATTGGGCCCGTCCGTATGGTGGGTTTTTTTTTTTCAATTGGGCCCGTCCGTATGGTGGGT
For B2, the binding signal (VEGF-165 [2]) was about 0.35 fraction bound.

B3: CT0C (structured_DNA)
DNA: CAATTGGGCCCGTCCGTATGGTGGGTCAATTGGGCCCGTCCGTATGGTGGGT
In the case of B3, the Kd (VEGF-165 [3]) is reported as 13.6 ± 2.7 nM, the Kd (VEGF-165 [4]) is reported as 74.8 ± 3.5 nM and the binding signal (VEGF-165 [2]) is reported as about 0.35 fraction bound.

B4: CT20A (structured_DNA)
DNA: CAATTGGGCCCGTCCGTATGGTGGGTTTTTTTTTTTTTTTTTTTTTGCCCGTCTTCCAGACAAGAGTGCAGGGC
B4: binds (VEGF-165 [5]).

B5: CT30A (structured_DNA)
DNA: CAATTGGGCCCGTCCGTATGGTGGGTTTTTTTTTTTTTTTTTTTTTTTTTTTTTTTGCCCGTCTTCCAGACAAGAGTGCAGGGC
B5: binds (VEGF-165 [5]).

B6: AT30C (structured_DNA)
DNA: GCCCGTCTTCCAGACAAGAGTGCAGGGCTTTTTTTTTTTTTTTTTTTTTTTTTTTTTTCAATTGGGCCCGTCCGTATGGTGGGT
B6: binds (VEGF-165 [5]).

In the case of CAATTGGGCCCGTCCGTATGGTGGGT (structured_DNA) [fC (SL2-B)], the Kd (VEGF-165 [6]) is reported as 37.9 ± 14 nM.

B7: CT0A (structured_DNA)
DNA: CAATTGGGCCCGTCCGTATGGTGGGTGCCCGTCTTCCAGACAAGAGTGCAGGGC
B7: binds (VEGF-165 [5]).

B8: CT60C (structured_DNA)
DNA: CAATTGGGCCCGTCCGTATGGTGGGTTTTTTTTTTTTTTTTTTTTTTTTTTTTTTTTTTTTTTTTTTTTTTTTTTTTTTTTTTTTTCAATTGGGCCCGTCCGTATGGTGGGT
B8 gave a Kd (VEGF-165 [6]) of 22.4 ± 1 nM.

B9: nfCT100 (structured_DNA)
DNA: CAATTGGGCCCGTCCGTATGGTGGGTTTTTTTTTTTTTTTTTTTTTTTTTTTTTTTTTTTTTTTTTTTTTTTTTTTTTTTTTTTTTTTTTTTTTTTTTTTTTTTTTTTTTTTTTTTTTTTTTT
B9: binds (VEGF-165 [7]).

B10: AT10C (structured_DNA)
DNA: GCCCGTCTTCCAGACAAGAGTGCAGGGCTTTTTTTTTTCAATTGGGCCCGTCCGTATGGTGGGT
B10 gave a Kd (VEGF-165 [3]) of 12.1 ± 1.9 nM and a Kd (VEGF-165 [4]) of 87.3 ± 4.9 nM.

B11: CT30C (structured_DNA)
DNA: CAATTGGGCCCGTCCGTATGGTGGGTTTTTTTTTTTTTTTTTTTTTTTTTTTTTTTCAATTGGGCCCGTCCGTATGGTGGGT
Binder B11 has a binding signal (VEGF-165 [2]) of about 0.35 fraction bound.

B12: AT20A (structured_DNA)
DNA: GCCCGTCTTCCAGACAAGAGTGCAGGGCTTTTTTTTTTTTTTTTTTTTGCCCGTCTTCCAGACAAGAGTGCAGGGC
For B12, the Kd (VEGF-165 [3]) was 5.5 ± 0.9 nM and the Kd (VEGF-165 [4]) was 145 ± 11.6 nM.

B13: AT60A (structured_DNA)
DNA: GCCCGTCTTCCAGACAAGAGTGCAGGGCTTTTTTTTTTTTTTTTTTTTTTTTTTTTTTTTTTTTTTTTTTTTTTTTTTTTTTTTTTTTGCCCGTCTTCCAGACAAGAGTGCAGGGC
B13 was tested, and the Kd (VEGF-165 [6]) was 7 ± 1.5 nM.

B14: CT20C (structured_DNA)
DNA: CAATTGGGCCCGTCCGTATGGTGGGTTTTTTTTTTTTTTTTTTTTTCAATTGGGCCCGTCCGTATGGTGGGT
B14 gave a binding signal (VEGF-165 [2]) of about 0.35 fraction bound.

With GCCCGTCTTCCAGACAAGAGTGCAGGGC (structured_DNA) [fA (+5'GC+3'C)] the Kd (VEGF-165 [6]) was 9.9 ± 1.3 nM and the binding result (VEGF-121) was “no binding”.

B15: AT20C (structured_DNA)
DNA: GCCCGTCTTCCAGACAAGAGTGCAGGGCTTTTTTTTTTTTTTTTTTTTCAATTGGGCCCGTCCGTATGGTGGGT
B15: binds (VEGF-165 [5]).

B16: CT10A (structured_DNA)
DNA: CAATTGGGCCCGTCCGTATGGTGGGTTTTTTTTTTTGCCCGTCTTCCAGACAAGAGTGCAGGGC
B16: binds (VEGF-165 [5]).

B17: AT60C (structured_DNA)
DNA: GCCCGTCTTCCAGACAAGAGTGCAGGGCTTTTTTTTTTTTTTTTTTTTTTTTTTTTTTTTTTTTTTTTTTTTTTTTTTTTTTTTTTTTCAATTGGGCCCGTCCGTATGGTGGGT
B17: binds (VEGF-165 [8]).

B18: AT0C (structured_DNA)
DNA: GCCCGTCTTCCAGACAAGAGTGCAGGGCCAATTGGGCCCGTCCGTATGGTGGGT
B18: binds (VEGF-165 [5]).
